# Data published in IntAct's records for PubMed 25772236.
# B1: E1B 55 kDa protein (Human adenovirus C serotype 5 (HAdV-5)), P03243-1 (parent)
# chain: MERRNPSERGVPAGFSGHASVESGCETQESPATVVFRPPGDNTDGGAAAAAGGSQAAAAGAEPMEPESRPGPSGMNVVQVAELYPELRRILTITEDGQGLKGVKRERGACEATEEARNLAFSLMTRHRPECITFQQIKDNCANELDLLAQKYSIEQLTTYWLQPGDDFEEAIRVYAKVALRPDCKYKISKLVNIRNCCYISGNGAEVEIDTEDRVAFRCSMINMWPGVLGMDGVVIMNVRFTGPNFSGTVFLANTNLILHGVSFYGFNNTCVEAWTDVRVRGCAFYCCWKGVVCRPKSRASIKKCLFERCTLGILSEGNSRVRHNVASDCGCFMLVKSVAVIKHNMVCGNCEDRASQMLTCSDGNCHLLKTIHVASHSRKAWPVFEHNILTRCSLHLGNRRGVFLPYQCNLSHTKILLEPESMSKVNLNGVFDMTMKIWKVLRYDETRTRCRPCECGGKHIRNQPVMLDVTEELRPDHLVLACTRAEFGSSDEDTD
# partner: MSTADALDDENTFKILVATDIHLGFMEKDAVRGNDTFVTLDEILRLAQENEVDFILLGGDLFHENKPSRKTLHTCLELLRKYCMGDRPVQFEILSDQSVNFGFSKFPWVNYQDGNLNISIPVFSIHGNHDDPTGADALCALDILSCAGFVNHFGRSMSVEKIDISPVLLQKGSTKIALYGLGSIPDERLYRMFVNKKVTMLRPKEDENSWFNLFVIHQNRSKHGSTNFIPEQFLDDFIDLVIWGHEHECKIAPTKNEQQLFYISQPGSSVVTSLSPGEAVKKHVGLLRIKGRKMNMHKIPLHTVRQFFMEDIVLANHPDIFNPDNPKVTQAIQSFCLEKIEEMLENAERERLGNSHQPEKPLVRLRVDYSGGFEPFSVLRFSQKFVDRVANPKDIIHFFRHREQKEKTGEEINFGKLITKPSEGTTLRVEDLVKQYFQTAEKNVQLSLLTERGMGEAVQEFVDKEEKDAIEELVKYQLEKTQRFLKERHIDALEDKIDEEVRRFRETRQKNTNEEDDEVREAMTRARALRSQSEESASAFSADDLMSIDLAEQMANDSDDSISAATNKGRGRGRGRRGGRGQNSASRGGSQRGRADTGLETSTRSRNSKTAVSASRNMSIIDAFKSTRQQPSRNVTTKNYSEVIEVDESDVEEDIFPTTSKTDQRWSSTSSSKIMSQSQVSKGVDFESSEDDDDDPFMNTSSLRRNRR
# B2: E1B 55 kDa protein (Human adenovirus C serotype 5 (HAdV-5)), P03243-1 (parent)
# chain: B1 chain
# Variants of: B1
# Conditions: with mre11_human MRE11, P49959
row,Variant,effect of a mutation on the interaction
1,K104R,decreasing interaction strength

# Variants of: B2
# Conditions: with PML
row,Variant,effect of a mutation on the interaction
1,R448A;T449A;R450A,disrupting interaction strength

# Variants of: B2
# Conditions: with PML
# Remark: another data set of the same source
row,Variant,effect of a mutation on the interaction
1,R443A,decreasing interaction strength
2,K104R,decreasing interaction strength

# Variants of: B2
# Conditions: with DAXX
row,Variant,effect of a mutation on the interaction
1,R443A,decreasing interaction strength
